Results on three molecules are retold here after patent publication US20100016408A1 (NEW YORK UNIVERSITY, published 2010).

One assay addresses T1, FLAG-tagged Claspin(ENL) (human, UniProt Q9HAW4 1-1339, limits assumed).
T1 construct: also called mutant #3; not shown: FLAG tag
As to the kind of experiment: co-immunoprecipitation with anti-HA antibody from HEK293T cells, immunoblot (FIG. 3F). Here is the method:
(§1) HEK293T cells were cotransfected with HA-tagged Cdh1 and the indicated FLAG-tagged Claspin mutants. Whole cell extracts (WCE, bottom two panels, FIG. 3B) were immunoprecipitated (IP, upper two panels FIG. 3B) with an anti-HA antibody, and the indicated proteins were detected by immunoblotting. Finally, five unique, triple-point-mutations to Alanine across Claspin amino acids 79-102 were inserted, following the pattern of evolutionary conserved residues (FIG. 3E), and these mutants were assayed for binding to Cdh1. […] Thus, these studies identified the motif “EENxENL” (SEQ ID NO:29) located at residues 86-92 of Claspin (SEQ ID NO: 9), as the site mediating binding to Cdh1. Accordingly, in contrast to wild type Claspin, Claspin(ENL) was stable in HeLa cells progressing through G1 (FIG. 2C).
A general note: Immunoblotting shows a protein as a band on a membrane.

In a further assay the target is T2, FLAG-tagged Claspin(EEN) (human, UniProt Q9HAW4 1-1339, limits assumed).
T2 construct: also called mutant #2; not shown: FLAG tag
T2 sequence (Q9HAW4 other isoform, or with tags, fused parts or gaps limits assumed): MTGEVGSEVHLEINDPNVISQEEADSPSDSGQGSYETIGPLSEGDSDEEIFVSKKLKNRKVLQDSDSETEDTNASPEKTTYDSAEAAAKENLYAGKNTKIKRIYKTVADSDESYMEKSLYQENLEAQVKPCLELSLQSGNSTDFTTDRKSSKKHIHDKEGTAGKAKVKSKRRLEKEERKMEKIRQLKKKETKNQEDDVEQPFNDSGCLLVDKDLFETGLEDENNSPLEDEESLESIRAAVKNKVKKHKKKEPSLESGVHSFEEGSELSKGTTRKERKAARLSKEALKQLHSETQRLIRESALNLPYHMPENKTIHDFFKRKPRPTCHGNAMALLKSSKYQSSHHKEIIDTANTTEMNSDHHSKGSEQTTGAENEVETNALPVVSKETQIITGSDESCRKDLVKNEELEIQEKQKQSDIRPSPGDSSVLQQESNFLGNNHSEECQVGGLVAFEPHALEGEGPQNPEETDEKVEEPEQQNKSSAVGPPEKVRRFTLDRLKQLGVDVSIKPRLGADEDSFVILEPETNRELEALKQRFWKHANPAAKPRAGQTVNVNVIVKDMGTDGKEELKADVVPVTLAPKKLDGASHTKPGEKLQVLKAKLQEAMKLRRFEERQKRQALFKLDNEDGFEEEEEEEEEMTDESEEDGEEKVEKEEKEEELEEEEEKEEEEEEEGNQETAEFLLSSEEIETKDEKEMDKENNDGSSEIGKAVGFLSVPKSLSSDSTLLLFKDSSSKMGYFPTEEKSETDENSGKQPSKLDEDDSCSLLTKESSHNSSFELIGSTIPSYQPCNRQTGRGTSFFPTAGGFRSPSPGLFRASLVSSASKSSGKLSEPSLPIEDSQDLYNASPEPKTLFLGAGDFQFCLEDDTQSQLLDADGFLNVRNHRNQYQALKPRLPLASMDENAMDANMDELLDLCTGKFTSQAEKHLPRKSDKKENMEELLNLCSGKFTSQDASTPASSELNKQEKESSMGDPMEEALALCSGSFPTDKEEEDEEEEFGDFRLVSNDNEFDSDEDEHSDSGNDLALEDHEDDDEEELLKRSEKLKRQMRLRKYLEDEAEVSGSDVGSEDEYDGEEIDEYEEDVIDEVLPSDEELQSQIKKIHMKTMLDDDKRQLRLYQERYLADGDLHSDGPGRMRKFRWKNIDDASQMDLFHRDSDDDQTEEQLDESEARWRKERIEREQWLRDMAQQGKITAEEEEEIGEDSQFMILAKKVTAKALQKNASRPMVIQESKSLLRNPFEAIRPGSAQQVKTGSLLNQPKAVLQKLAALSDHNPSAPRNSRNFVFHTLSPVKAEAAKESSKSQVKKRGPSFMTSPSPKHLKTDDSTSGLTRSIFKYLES
Described as above. On the procedure:
as §1

The target in a further assay is T3, Claspin (human, UniProt Q9HAW4 1-1339).
T3 construct: also called endogenous Claspin; wild type Claspin
T3 sequence (Q9HAW4 whole entry): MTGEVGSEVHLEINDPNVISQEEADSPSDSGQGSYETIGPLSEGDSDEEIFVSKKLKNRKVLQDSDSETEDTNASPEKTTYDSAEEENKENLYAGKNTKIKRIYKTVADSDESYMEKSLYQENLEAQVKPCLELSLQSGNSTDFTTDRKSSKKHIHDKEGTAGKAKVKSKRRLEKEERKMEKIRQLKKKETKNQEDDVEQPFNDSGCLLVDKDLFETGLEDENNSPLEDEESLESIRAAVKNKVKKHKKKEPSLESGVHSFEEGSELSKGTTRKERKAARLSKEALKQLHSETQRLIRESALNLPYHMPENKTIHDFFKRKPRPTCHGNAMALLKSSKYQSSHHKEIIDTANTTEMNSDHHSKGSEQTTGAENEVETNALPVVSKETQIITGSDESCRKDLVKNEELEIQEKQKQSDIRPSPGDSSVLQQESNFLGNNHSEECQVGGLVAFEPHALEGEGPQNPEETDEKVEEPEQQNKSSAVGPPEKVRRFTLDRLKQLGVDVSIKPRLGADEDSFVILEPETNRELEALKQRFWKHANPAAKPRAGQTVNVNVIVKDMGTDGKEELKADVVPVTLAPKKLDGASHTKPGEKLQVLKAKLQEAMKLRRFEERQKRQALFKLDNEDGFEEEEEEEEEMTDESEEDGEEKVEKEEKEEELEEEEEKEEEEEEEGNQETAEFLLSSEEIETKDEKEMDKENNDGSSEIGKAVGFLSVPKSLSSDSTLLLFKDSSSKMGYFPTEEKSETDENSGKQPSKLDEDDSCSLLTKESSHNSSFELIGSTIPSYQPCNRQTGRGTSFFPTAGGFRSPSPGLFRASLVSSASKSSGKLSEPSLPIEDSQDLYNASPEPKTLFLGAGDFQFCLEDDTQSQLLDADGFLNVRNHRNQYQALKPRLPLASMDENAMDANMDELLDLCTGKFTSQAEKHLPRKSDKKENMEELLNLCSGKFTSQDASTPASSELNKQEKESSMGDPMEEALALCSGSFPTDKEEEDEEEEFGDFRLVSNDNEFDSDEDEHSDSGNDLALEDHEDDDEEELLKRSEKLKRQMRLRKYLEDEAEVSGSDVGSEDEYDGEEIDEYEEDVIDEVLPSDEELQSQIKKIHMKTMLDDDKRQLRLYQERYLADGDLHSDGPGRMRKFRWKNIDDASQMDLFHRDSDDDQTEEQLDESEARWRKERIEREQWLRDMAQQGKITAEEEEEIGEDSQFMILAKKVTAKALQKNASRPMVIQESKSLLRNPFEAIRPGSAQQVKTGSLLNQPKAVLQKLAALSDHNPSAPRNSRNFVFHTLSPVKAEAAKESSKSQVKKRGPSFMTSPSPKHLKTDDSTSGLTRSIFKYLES
As to the kind of experiment: co-immunoprecipitation with anti-FLAG resin from HEK293T cells, immunoblot for endogenous Claspin (FIG. 2A). Here is the method:
To test whether APC/C^Cdh1 has a role in the degradation of Claspin during G0/G1, the expression of Cdh1 was reduced in T98G cells using a validated […] (SEQ ID NO:21). T98G cells were serum starved following knockdown of Cdh1, and the expression levels of Claspin were analyzed at various time points thereafter. FIGS. 2A-D are immunoblots showing Claspin is degraded in G0 and G1 via the APC/C^Cdh1 ubiquitin ligase. […] HEK293T cells were transfected with the indicated FLAG-tagged constructs or an empty vector (EV). Whole cell extracts (WCE) were immunoprecipitated (IP) with anti-FLAG resin, and immunocomplexes were probed with antibodies to the indicated proteins.

T1 sequence (Q9HAW4 other isoform, or with tags, fused parts or gaps limits assumed): as the sequence (Q9HAW4 whole entry) above, with E90A, N91A, L92A counted along it

B1: HA-tagged Cdh1 (other)
chain: MDQDYERRLLRQIVIQNENTMPRVTEMRRTLTPASSPVSSPSKHGDRFIPSRAGANWSVNFHRINENEKSPSQNRKAKDATSDNGKDGLAYSALLKNELLGAGIEKVQDPQTEDRRLQPSTPEKKGLFTYSLSTKRSSPDDGNDVSPYSLSPVSNKSQKLLRSPRKPTRKISKIPFKVLDAPELQDDFYLNLVDWSSLNVLSVGLGTCVYLWSACTSQVTRLCDLSVEGDSVTSVGWSERGNLVAVGTHKGFVQIWDAAAGKKLSMLEGHTARVGALAWNAEQLSSGSRDRMILQRDIRTPPLQSERRLQGHRQEVCGLKWSTDHQLLASGGNDNKLLVWNHSSLSPVQQYTEHLAAVKAIAWSPHQHGLLASGGGTADRCIRFWNTLTGQPLQCIDTGSQVCNLAWSKHANELVSTHGYSQNQILVWKYPSLTQVAKLTGHSYRVLYLAMSPDGEAIVTGAGDETLRFWNVFSKTRSTKESVSVLNLFTRIR
notes: not shown: HA tag
As for B1, the binding result with FLAG-tagged Claspin(ENL) and with FLAG-tagged Claspin(EEN) was “no binding” in each case.

B2: FLAG-tagged Fbxw5 (other, UniProt Q969U6 1-566, looked up)
chain: MDEGGTPLLPDSLVYQIFLSLGPADVLAAGLVCRQWQAVSRDEFLWREQFYRYYQVARDVPRHPAAMSWYEEFQRLYDTVPCVEVQTLREHTDQVLHLSFSHSGYQFASCSKDCTVKIWSNDLTISLLHSADMRPYNWSYTQFSQFNKDDSLLLASGVFLGPHNSSSGEIAVISLDSFALLSRVRNKPYDVFGCWLTETSLISGNLHRIGDITSCSVLWLNNAFQDVESENVNVVKRLFKIQNLNASTVRTVMVADCSRFDSPDLLLEAGDPATSPCRIFDLGSDNEEVVAGPAPAHAKEGLRHFLDRVLEGRAQPQLSERMLETKVAELLAQGHTKPPERSATGAKSKYLIFTTGCLTYSPHQIGIKQILPHQMTTAGPVLGEGRGSDAFFDALDHVIDIHGHIIGMGLSPDNRYLYVNSRAWPNGAVVADPMQPPPIAEEIDLLVFDLKTMREVRRALRAHRAYTPNDECFFIFLDVSRDFVASGAEDRHGYIWDRHYNICLARLRHEDVVNSVVFSPQEQELLLTASDDATIKAWRSPRTMRVLQAPRPRPRTFFSWLASQRR
notes: not shown: FLAG tag
Regarding B2, the binding result with Claspin was “no binding”.

B3: FLAG-tagged Fbxw4 (other, UniProt P57775 1-412, looked up)
chain: MAAAAGEEEEEEEAARESAARPAAGPALWRLPEELLLLICSYLDMRALGRLAQVCRWLRRFTSCDLLWRRIARASLNSGFTRLGTDLMTSVPVKERVKVSQNWRLGRCREGILLKWRCSQMPWMQLEDDSLYISQANFILAYQFRPDGASLNRRPLGVFAGHDEDVCHFVLANSHIVSAGGDGKIGIHKIHSTFTVKYSAHEQEVNCVDCKGGIIVSGSRDRTAKVWPLASGRLGQCLHTIQTEDRVWSIAISPLLSSFVTGTACCGHFSPLRIWDLNSGQLMTHLGSDFPPGAGVLDVMYESPFTLLSCGYDTYVRYWDLRTSVRKCVMEWEEPHDSTLYCLQTDGNHLLATGSSYYGVVRLWDRRQRACLHAFPLTSTPLSSPVYCLRLTTKHLYAALSYNLHVLDFQNP
notes: not shown: FLAG tag
On to B3, for which, in the assay with Claspin, the binding result is listed as “no binding”.
